According to US10864269B2, “Therapeutic combinations comprising anti-CD73 antibodies and uses thereof” (MedImmune Limited, priority 2014, dated 2020):

Assays:
[1] = target: T1, CD73 on the cell surface of MDA-MB-231 cells (Homo sapiens, UniProt P21589); test: Antibody-mediated internalization or shedding of CD73 by flow cytometry; assay type: cell-based; settings: for Percentage of CD73 remaining on the cell surface: 100 nM antibody, 37° C.
T1 construct: native CD73 expressed on human, murine, and cynomolgus monkey cell lines; endogenous in cells; host or cells: MDA-MB-231
T1 sequence (P21589 27-549): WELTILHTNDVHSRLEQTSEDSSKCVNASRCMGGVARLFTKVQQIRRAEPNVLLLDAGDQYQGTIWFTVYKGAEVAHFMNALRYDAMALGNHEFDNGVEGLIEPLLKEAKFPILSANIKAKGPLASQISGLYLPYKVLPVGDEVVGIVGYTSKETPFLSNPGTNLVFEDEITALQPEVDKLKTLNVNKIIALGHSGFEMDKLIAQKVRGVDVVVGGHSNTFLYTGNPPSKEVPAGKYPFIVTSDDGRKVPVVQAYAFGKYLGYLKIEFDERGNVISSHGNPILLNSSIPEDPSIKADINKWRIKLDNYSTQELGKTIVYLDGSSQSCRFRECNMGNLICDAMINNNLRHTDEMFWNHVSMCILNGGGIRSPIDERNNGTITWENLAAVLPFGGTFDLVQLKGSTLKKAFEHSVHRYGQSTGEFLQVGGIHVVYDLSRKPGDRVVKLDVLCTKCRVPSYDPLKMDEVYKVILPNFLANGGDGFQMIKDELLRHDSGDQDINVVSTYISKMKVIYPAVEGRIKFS
Method: Antibody-mediated internalization or shedding of CD73 was assessed by flow cytometry. MDA-MB-231 cells were incubated in presence of 100 nM MEDI9447 or negative control antibody R347 in growth medium at 37° C. for 0-4 hours. Cells were washed and resuspended in ice-cold PBS. The presence of CD73 on the cell surface was detected by adding 10 nM DyLight488-labeled detection antibody. Cells were incubated for 15 minutes, washed and analyzed by flow cytometry. The detection antibody binds to an epitope of CD73 that is different from the MEDI9447 epitope and both antibodies simultaneously bind to CD73 without interference.

[2] = system: CT26 murine syngeneic tumors; test: CT26 syngeneic tumor model, MEDI9447 monotherapy; assay type: in vivo, Balb/C mice
Method: CT26 cells, which are derived from a murine colon cancer, were established by subcutaneous (SC) injection of 5×10^5 cells suspended in 0.1 mL of PBS into the right flanks of 4-to-6-week-old female mice. The mice were treated with MEDI9447 or with a control antibody.
10 mice per group were used in this study. Animals were randomly assigned into groups. Animals in Group 1 were untreated and Group 2 was administered an isotype control. MEDI9447 was administered to Group 3. Test articles were administered intraperitoneally twice weekly starting on Day 3. On Day 16, 5 animals from each group were necropsied and tumors were isolated.
Tumors were measured on Days 1, 7, 9, 12, 14, and 16 by caliper, and the volumes of tumors were calculated as follows: […] (1) The anticancer effects of MEDI9447 were expressed as percent tumor growth inhibition, which was calculated as follows: (Average tumor volume for MEDI9447/Average tumor volume for R347-TM)×100 (2)
Tumors were isolated for flow cytometry. Tumors were dissected from CT26 tumor-bearing mice on study Day 16. Tumors were cut into small pieces and were digested with collagenase. […] Dissociated cells were pelleted at 1000 rpm for 5 minutes at 4° C. and were re-suspended in fluorescence-activated cell sorting (FACS) buffer. Cells were counted on Vi-Cell using the default setting. […]

MDA-MB-231 cells = test: FabZAP antibody internalization assay, MDA-MB-231; assay type: cell-based, human; settings: MDA-MB-231, 3 days
Method: Internalization of MEDI9447 into cell lines MDA-MB-231 (human mammary carcinoma) and 4T1 (murine mammary carcinoma) was assessed using a human Antibody Internalization Kit that is sold commercially as the FabZAP assay (Advanced Targeting Systems, San Diego Calif.). Serial dilutions of MEDI9447 or negative control antibody R347 were pre-incubated with 40 nM FabZAP reagent (Fab fragment of a polyclonal anti-human IgG antibody conjugated to the cytotoxic protein saporin) and then added to the cell lines. After 3 days in culture, cell proliferation was measured using a luminescent cell viability assay sold commercially as the CELLTITER-GLO® assay (Promega, Madison Wis.). This assay was used to calculate EC50 values and maximum toxicity. […]
Cell proliferation of MDA-MB-231 cells and 4T1 cells treated with serial dilutions of test antibody and FabZAP reagent was measured by CELLTITER-GLO® assay (FIG. 2). The signal from the negative control antibody R347 in the CELLTITER-GLO® assay was subtracted from the signal of MEDI9447 and the EC50 value and maximum toxicity were calculated by fitting the dose-response curve using non-linear regression analysis.
1,000 cells/well were cultured in 96 well plates in RPMI/10% FBS. […] After 3 days incubation at 37C, the cell proliferation was measured using the CELLTITER-GLO® assay (Promega, Madison Wis.).

What does the source list for “MEDI9447: IgG1 with CD730010-derived VL of SEQ ID NO: 68 and VH of SEQ ID NO: 82”?
Percentage of CD73 remaining on the cell surface ([1]; 0 h): 100%; Percentage of CD73 remaining on the cell surface ([1]; 0.25 h): 90%; Percentage of CD73 remaining on the cell surface ([1]; 0.5 h): 90%; Percentage of CD73 remaining on the cell surface ([1]; 1 h): 87%; Percentage of CD73 remaining on the cell surface ([1]; 2 h): 80%; Percentage of CD73 remaining on the cell surface ([1]; 4 h): 73%; CD73 either internalized or shed upon antibody binding ([1]; 4 hours incubation): 27%; tumor growth ([2]; CT26, Balb/C mice, 10 mg/kg IP 2X weekly): inhibited tumor growth; proportion of tumor-infiltrating MDSCs ([2]; CT26 tumors harvested study Day 16, flow cytometry): reduced; maximum toxicity (MDA-MB-231 cells): 97%
